Experimental data published in the supplement of paper PMC6755084.

B1: minF1; the commonest letter at each place (parent)
chain: GAGACCGCAACTGAAAAGTTGTTATCAGAAATGGATGGGTTGAATTTCTGCACGTAGAAGCAAAAGGC

Variants of: B1
Experiment: fraction ligated after 30 min (ligated reads / total reads); higher = more ligase activity
Settings: with F1*subA RNA substrate (template-directed ligation), 42 °C
Procedure, shortened: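 Ligated and unligated RNAs from a pool of minimized ligase ribozyme variants were separated on gels, reverse transcribed with barcoded primers and sequenced on a MiSeq. Core bases needed quality ≥30 to pass the filter. Each variant's fraction ligated was then taken as ligated reads over total reads.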

Variant | fraction ligated
GAGACCGCAACTGAAAAGTTGTTATCTGAAATGGATGGGTTCAATTTCTGCACGTAGAAGCAAAAGGC [A27T G42C] | 0.0569
GAGACCGCAACTGAAAAGTTGTTATCTGAAATGTATGGGTTGAATTTCTGCACGTAGAAGCAAAAGGC [A27T G34T] | 0.00294
GAGACCGCAACTGAAAAGTTGTTATCTGAAATGCATGGGTTGAATTTCTGCACGTAGAAGCAAAAGGC [A27T G34C] | 0.00507
GAGACCGCAACTGAAAAGTTGTTATCTGAAATGAATGGGTTGAATTTCTGCACGTAGAAGCAAAAGGC [A27T G34A] | 0.285
GAGACCGCAACTGAAAAGTTGTTATCGGAAATGGATGGGTTGTATTTCTGCACGTAGAAGCAAAAGGC [A27G A43T] | 0.169
GAGACCGCAACTGAAAAGTTGTTATCGGAAATGGATGGGTTGGATTTCTGCACGTAGAAGCAAAAGGC [A27G A43G] | 0.105
GAGACCGCAACTGAAAAGTTGTTATCTGAAATAGATGGGTTGAATTTCTGCACGTAGAAGCAAAAGGC [A27T G33A] | 0.829
GAGACCGCAACTGAAAAGTTGTTATCTGAAATCGATGGGTTGAATTTCTGCACGTAGAAGCAAAAGGC [A27T G33C] | 0.822
GAGACCGCAACTGAAAAGTTGTTATCTGAAATTGATGGGTTGAATTTCTGCACGTAGAAGCAAAAGGC [A27T G33T] | 0.737
GAGACCGCAACTGAAAAGTTGTTATCTGAAATGGCTGGGTTGAATTTCTGCACGTAGAAGCAAAAGGC [A27T A35C] | 0.406
GAGACCGCAACTGAAAAGTTGTTATCTGAAATGGGTGGGTTGAATTTCTGCACGTAGAAGCAAAAGGC [A27T A35G] | 0.384
GAGACCGCAACTGAAAAGTTGTTATCTGAAATGGTTGGGTTGAATTTCTGCACGTAGAAGCAAAAGGC [A27T A35T] | 0.102
GAGACCGCAACTGAAAAGTTGTTATCTAAAATGGATGGGTTGAATTTCTGCACGTAGAAGCAAAAGGC [A27T G28A] | 0.825
GAGACCGCAACTGAAAAGTTGTTATCTTAAATGGATGGGTTGAATTTCTGCACGTAGAAGCAAAAGGC [A27T G28T] | 0.833
GAGACCGCAACTGAAAAGTTGTTATCTCAAATGGATGGGTTGAATTTCTGCACGTAGAAGCAAAAGGC [A27T G28C] | 0.765
GAGACCGCAACTGAAAAGTTGTTATCAAAAATGGATGGGTTGAATTTCTGCACGTAGAAGCAAAAGGC [G28A] | 0.809
GAGACCGCAACTGAAAAGTTGTTATCTGAAGTGGATGGGTTGAATTTCTGCACGTAGAAGCAAAAGGC [A27T A31G] | 0.837
GAGACCGCAACTGAAAAGTTGTTATCTGAACTGGATGGGTTGAATTTCTGCACGTAGAAGCAAAAGGC [A27T A31C] | 0.844
GAGACCGCAACTGAAAAGTTGTTATCTGAATTGGATGGGTTGAATTTCTGCACGTAGAAGCAAAAGGC [A27T A31T] | 0.802
GAGACCGCAACTGAAAAGTTGTTATCTGGAATGGATGGGTTGAATTTCTGCACGTAGAAGCAAAAGGC [A27T A29G] | 0.829

Variant | fraction ligated
GAGACCGCAACTGAAAAGTTGTTATCTGCAATGGATGGGTTGAATTTCTGCACGTAGAAGCAAAAGGC [A27T A29C] | 0.808
GAGACCGCAACTGAAAAGTTGTTATCTGTAATGGATGGGTTGAATTTCTGCACGTAGAAGCAAAAGGC [A27T A29T] | 0.832
GAGACCGCAACTGAAAAGTTGTTATCTGAAATGGAAGGGTTGAATTTCTGCACGTAGAAGCAAAAGGC [A27T T36A] | 0.122
GAGACCGCAACTGAAAAGTTGTTATCTGAAATGGACGGGTTGAATTTCTGCACGTAGAAGCAAAAGGC [A27T T36C] | 0.0659
GAGACCGCAACTGAAAAGTTGTTATCTGAAATGGAGGGGTTGAATTTCTGCACGTAGAAGCAAAAGGC [A27T T36G] | 0.16
GAGACCGCAACTGAAAAGTTGTTATCAACAATGGATGGGTTGAATTTCTGCACGTAGAAGCAAAAGGC [G28A A29C] | 0.83
GAGACCGCAACTGAAAAGTTGTTATCAATAATGGATGGGTTGAATTTCTGCACGTAGAAGCAAAAGGC [G28A A29T] | 0.822
GAGACCGCAACTGAAAAGTTGTTATCAAGAATGGATGGGTTGAATTTCTGCACGTAGAAGCAAAAGGC [G28A A29G] | 0.835
GAGACCGCAACTGAAAAGTTGTTATCAAAAATGGCTGGGTTGAATTTCTGCACGTAGAAGCAAAAGGC [G28A A35C] | 0.0346
GAGACCGCAACTGAAAAGTTGTTATCAAAAATGGTTGGGTTGAATTTCTGCACGTAGAAGCAAAAGGC [G28A A35T] | 0.0165
GAGACCGCAACTGAAAAGTTGTTATCAAAAATGGGTGGGTTGAATTTCTGCACGTAGAAGCAAAAGGC [G28A A35G] | 0.246
GAGACCGCAACTGAAAAGTTGTTATCGGAAATGGATGGGTTTAATTTCTGCACGTAGAAGCAAAAGGC [A27G G42T] | 0.16
GAGACCGCAACTGAAAAGTTGTTATCGGAAATGGATGGGTTAAATTTCTGCACGTAGAAGCAAAAGGC [A27G G42A] | 0.361
GAGACCGCAACTGAAAAGTTGTTATCGGAAATGGATGGGTTCAATTTCTGCACGTAGAAGCAAAAGGC [A27G G42C] | 0.0187
GAGACCGCAACTGAAAAGTTGTTATCGTAAATGGATGGGTTGAATTTCTGCACGTAGAAGCAAAAGGC [A27G G28T] | 0.824
GAGACCGCAACTGAAAAGTTGTTATCGCAAATGGATGGGTTGAATTTCTGCACGTAGAAGCAAAAGGC [A27G G28C] | 0.793
GAGACCGCAACTGAAAAGTTGTTATCGAAAATGGATGGGTTGAATTTCTGCACGTAGAAGCAAAAGGC [A27G G28A] | 0.797
GAGACCGCAACTGAAAAGTTGTTATCTGATATGGATGGGTTGAATTTCTGCACGTAGAAGCAAAAGGC [A27T A30T] | 0.834
GAGACCGCAACTGAAAAGTTGTTATCTGACATGGATGGGTTGAATTTCTGCACGTAGAAGCAAAAGGC [A27T A30C] | 0.822
GAGACCGCAACTGAAAAGTTGTTATCTGAGATGGATGGGTTGAATTTCTGCACGTAGAAGCAAAAGGC [A27T A30G] | 0.851
